Substrate in data set [1]: C[C@H](N)C(=O)O
The note with it: Escherichia coli B.

Substrate in data set [2]: N[C@@H](CF)C(=O)O
The note with it: Escherichia coli B.

Substrate in data set [3]: N[C@H](CF)C(=O)O
The conditions noted are these: Escherichia coli B.

Substrate in data set [4]: OC[C@@H]1CC[C@H](n2cnc3c(Br)ncnc32)O1
As to the kind of experiment: (§1) Prodrug conversion in rat blood assessed as Km for adenosine deaminase-mediated didanosine formation by HPLC analysis. The data set is classed as ADME, tissue-based.

Substrate in data set [5]: OC[C@@H]1CC[C@H](n2cnc3c(Cl)ncnc32)O1
The data set is described as §1. The data set is classed as ADME, tissue-based.

Substrate in data set [6]: OC[C@@H]1CC[C@H](n2cnc3c(F)ncnc32)O1
The data set is described as §1. The data set is classed as ADME, tissue-based.

B1: Alanine racemase, biosynthetic (Escherichia coli K-12), P0A6B4 (protein)
chain: MQAATVVINRRALRHNLQRLRELAPASKMVAVVKANAYGHGLLETARTLPDADAFGVARLEEALRLRAGGITKPVLLLEGFFDARDLPTISAQHFHTAVHNEEQLAALEEASLDEPVTVWMKLDTGMHRLGVRPEQAEAFYHRLTQCKNVRQPVNIVSHFARADEPKCGATEKQLAIFNTFCEGKPGQRSIAASGGILLWPQSHFDWVRPGIILYGVSPLEDRSTGADFGCQPVMSLTSSLIAVREHKAGEPVGYGGTWVSERDTRLGVVAMGYGDGYPRAAPSGTPVLVNGREVPIVGRVAMDMICVDLGPQAQDKAGDPVILWGEGLPVERIAEMTKVSAYELITRLTSRVAMKYVD
With B1, the values for the Km in data set [1], in data set [2] and in data set [3] were 1300 µM, 50 µM and 2400 µM, respectively.

B2: (Rattus norvegicus) (protein)
chain: MAQTPAFNKPKVELHVHLDGAIKPETILYYGKKRGIDLPADTVEGLRNIIGMDKPLSLPDFLAKFDYYMPAIAGCREAIKRIAYEFVEMKAKEGVVYVEVRYSPHLLANSKVDPIPWNQAEGDLTPDEVVDLVNQGLQEGEQAFGIKVRSILCCMRHQPSWSPEVLELCKKYHQKTVVAMDLAGDETIEGSSLFPGHVEAYEGAVKDGIHRTVHAGEVGSAEVVREAVDILKTERVGHGYHTIEDEALYNRLLKENMHFEVCPWSSYLTGAWNPKTTHAVVRFKDDQANYSLNSDDPLIFKSTVDTDYQMVKKDMGFTEEEFKRLNINAAKSSFLPEDEKKELLERLYKEYQ
With B2, the Km stood at 16 mM in data set [4], 17 mM in data set [5] and 720 µM in data set [6].

The values above are taken from ChEMBL document CHEMBL4613261, “Metabolic and Pharmaceutical Aspects of Fluorinated Compounds” (J Med Chem, 2020).
